Data as given in article PMC7043357.

Molecular target: T1, Rop (UniProt P03051 1-63)
T1 sequence: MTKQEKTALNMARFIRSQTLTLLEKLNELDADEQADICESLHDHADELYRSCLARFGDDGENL
Assay: EMSA

B1: RNA1-U6/RNA2-WT kissing dimer (structured_RNA)
RNA 1: GGCAGCUUUUUUUUGGUAGUUUUUUGCUGCC
RNA 2: GCACCGCUACCAACGGUGC
binding result: binds
